Test results: patent publication US11278600B2, “Human alpha-galactosidase variants” (Codexis, Inc., priority 2014, dated 2022)

How the values were obtained:
Type in all cases: biochemical
[1] = HTP-analysis of supernatants pretreated with base (MUGal hydrolysis); settings: challenge at pH 7.6; activity of the variant/activity of Rd2BB (SEQ ID NO: 10); yeast supernatant
Outline: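 Fluorescence of released 4-MU (Ex 355 nm, Em 448 nm) after carbonate quench reports MUGal hydrolysis by GLA variants secreted from INVSc1 yeast. Before the acidic (pH 4.3-4.8) 30-180 min reaction at 37° C, supernatants had been pre-incubated at pH 7.0-9.7 for 1-18 h at 37° C.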

[2] = HTP-analysis of supernatants pretreated with acid (MUGal hydrolysis); settings: challenge at pH 4.2; activity of the variant/activity of Rd2BB (SEQ ID NO: 10); yeast supernatant
Outline: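 GLA variants were secreted from INVSc1 yeast grown 66-84 h at 30° C. in SD-Ura with 2% glucose; supernatants were mixed with McIlvaine buffer pH 3.3-4.3 and held at 37° C. for 1-3 h. Residual activity on MUGal at pH 4.8 was then measured by fluorescence.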

[3] = HTP-analysis of yeast culture supernatants, no challenge (MUGal hydrolysis); settings: activity of the variant/activity of Rd2BB (SEQ ID NO: 10), yeast supernatant
Outline: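 GLA variants expressed in yeast INVSc1, secreted into SD-Ura broth over 66-84 h at 30° C; clarified supernatants tested without challenge. Supernatant mixed with McIlvaine buffer pH 4.8 and 2 mM MUGal (citrate/KCl, pH 4.6), 37° C for 30-180 min, carbonate-quenched, fluorescence Ex 355/Em 448 nm.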

Molecule | Relative Activity of GLA Variants After Challenge at pH 7.6 [1] | Relative Activity of GLA Variants After Challenge at pH 4.2 [2] | Relative Activity of GLA Variants After No Challenge (NC) [3]
216 (protein, Synthetic Polypeptide sequence of Variant No. 216 of mature Human GLA) LDNGLARTPTMGWLHWERFMCNLDCQEEPDSCISEKLFMEMAELMVSEGWKDAGYEYLCIDDCWMAPQRDSEGRLQADPQRFPHGIRQLANYVHSKGLKLGIYADVGNKTCAGFPGSFGYYDIDAQTFADWGVDLLKFDGCYCDSLENLADGYKHMSLALNRTGRSIVYSCEWPLYMWPFQKPNYTEIRQYCNHWRNFADIDDSWASIKSILDWTSFNQERIVDVAGPGGWNDPDMLVIGNFGLSWNQQVTQMALWAIMAAPLFMSNDLRHISPQAKALLQDKDVIAINQDPLGKQGYQLRQGDNFEVWERPLSGLAWAVAMINRQEIGGPRSYTIAVASLGGGVACNPACFITQLLPVKRKLGLYNWTSRLKSHINPTGTVLLQLENTMQMSKDLLL | +++ (+++ = >2.5 relative activity over Rd2BB (SEQ ID NO: 10)) | +++ (+++ = >2.5 relative activity over Rd2BB (SEQ ID NO: 10)) | ++ (++ = 1.5 to 2.5 relative activity over Rd2BB (SEQ ID NO: 10))
220 (protein, Synthetic Polypeptide sequence of Variant No. 220 of mature Human GLA) LDNGLARTPTMGWLHWERFMCNLDCQEEPDSCISEKLFMEMAELMVSEGWKDAGYEYLCIDDCWMAPQRDSEGRLQADPQRFPHGIRQLANYVHSKGLKLGIYADVGNKTCAGFPGSFGYYDIDAQTFADWGVDLLKFDGCYCDSLENLADGYKHMSLALNRTGRSIVYSCEWPLYMWPFQKPNYTEIRQYCNHWRNFADIDDSWASIKSILDWTSFNQERIVDVAGPGGWNDPDMLVIGNFGLSWNQQVTQMALWAIMAAPLFMSNDLRHISPQAKALLQDKDVIAINQDPLGKQGYQLRQGDNFEVWERPLSGLAWAVAVINRQEIGGPRSYTIAVASLGKGVACNPACFITQLLPVKRKLGFYEWTSRLKSHVNPTGTVLLQLENTMQMSKDLLL | ++ (++ = 1.5 to 2.5 relative activity over Rd2BB (SEQ ID NO: 10)) | + (+ = 0.5 to 1.5 relative activity over Rd2BB (SEQ ID NO: 10)) | + (+ = 0.5 to 1.5 relative activity over Rd2BB (SEQ ID NO: 10))
222 (protein, Synthetic Polypeptide sequence of Variant No. 222 of mature Human GLA) LDNGLARTPTMGWLHWERFMCNLDCQEEPDSCISEKLFMEMAELMVSEGWKDAGYEYLCIDDCWMAPQRDSEGRLQADPQRFPHGIRQLANYVHSKGLKLGIYADVGNKTCAGFPGSFGYYDIDAQTFADWGVDLLKFDGCYCDSLENLADGYKHMSLALNRTGRSIVYSCEWPLYMWPFQKPNYTEIRQYCNHWRNFADIDDSWASIKSILDWTSFNQERIVDVAGQGGWNDPDMLVIGNFGLSWNQQVTQMALWAIMAAPLFMSNDLRHISPQAKALLQDKDVIAINQDPLGKQGYQLRQGDNFEVWERPLSGLAWAVAMINRQEIGGPRSYTIAVASLGKGVACNPACFITQLLPVKRKLGFYEWDSRLRSHINPTGTVLLQLENTMQMSKDLLL | + (+ = 0.5 to 1.5 relative activity over Rd2BB (SEQ ID NO: 10)) | ++ (++ = 1.5 to 2.5 relative activity over Rd2BB (SEQ ID NO: 10)) | ++ (++ = 1.5 to 2.5 relative activity over Rd2BB (SEQ ID NO: 10))
218 (protein, Synthetic Polypeptide sequence of Variant No. 218) LDNGLARTPTMGWLHWERFMCNLDCQEEPDSCISEKLFMEMAELMVSEGWKDAGYEYLCIDDCWMAPQRDSEGRLQADPQRFPHGIRQLANYVHSKGLKLGIYADVGNKTCAGFPGSFGYYDIDAQTFADWGVDLLKFDGCYCDSLENLADGYKHMSLALNRTGRSIVYSCEWPLYMWPFQKPNYTEIRQYCNHWRNFADIDDSWASIKSILDWTSFNQERIVDVAGPGGWNDPDMLVIGNFGLSWNQQVTQMALWAIMAAPLFMSNDLRHISPQAKALLQDKDVIAINQDPLGKQGYQLRQGDNFEVWERPLSGLAWAVAIINRQEIGGPRSYTIAVASLGKGVACNPACFITQLLPVKRKLGFYNWTSRLKSHINPTGTVLLQLENTMQMSLKDLL | +++ (+++ = >2.5 relative activity over Rd2BB (SEQ ID NO: 10)) | +++ (+++ = >2.5 relative activity over Rd2BB (SEQ ID NO: 10)) | +++ (+++ = >2.5 relative activity over Rd2BB (SEQ ID NO: 10))
219 (protein, Synthetic Polypeptide sequence of Variant No. 219 of mature Human GLA) LDNGLARTPTMGWLHWERFMCNLDCQEEPDSCISEKLFMEMAELMVSEGWKDAGYEYLCIDDCWMAPQRDSEGRLQADPQRFPHGIRQLANYVHSKGLKLGIYADVGNKTCAGFPGSFGYYDIDAQTFADWGVDLLKFDGCYCDSLENLADGYKHMSLALNRTGRSIVYSCEWPLYMWPFQKPNYTEIRQYCNHWRNFADIDDSWASIKSILDWTSFNQERIVDVAGPGGWNDPDMLVIGNFGLSWNQQVTQMALWAIMAAPLFMSNDLRHISPQAKALLQDKDVIAINQDPLGKQGYQLRQGDNFEVWERPLSGLAWAVAIINRQEIGGPRSYTIAVASLGKGVACNPACFITQLLPVKRKLGFYEWTSRLKSHINPTGTVLLQLENTMQMSKDLLL | + (+ = 0.5 to 1.5 relative activity over Rd2BB (SEQ ID NO: 10)) | + (+ = 0.5 to 1.5 relative activity over Rd2BB (SEQ ID NO: 10)) | + (+ = 0.5 to 1.5 relative activity over Rd2BB (SEQ ID NO: 10))
223 (protein, Synthetic Polypeptide sequence of Variant No. 223 of mature Human GLA) LDNGLARTPTMGWLHWERFMCNLDCQEEPDSCISEKLFMEMAELMVSEGWKDAGYEYLCIDDCWMAPQRDSEGRLQADPQRFPHGIRQLANYVHSKGLKLGIYADVGNKTCAGFPGSFGYYDIDAQTFADWGVDLLKFDGCYCDSLENLADGYKHMSLALNRTGRSIVYSCEWPLYMWPFQKPNYTEIRQYCNHWRNFADIDDSWASIKSILDWTSFNQERIVDVAGPGGWNDPDMLVIGNFGLSWNQQVTQMALWAIMAAPLFMSNDLRHISPQAKALLQDKDVIAINQDPLGKQGYQLRKGDNFEVWERPLSGLAWAVAMINRQEIGGPRSYTIPVASLGKGVACNPGCFITQLLPVKRQLGFYEWTSRLRSHINPTGTVLLQLENTMQMSKDLLL | ++ (++ = 1.5 to 2.5 relative activity over Rd2BB (SEQ ID NO: 10)) | ++ (++ = 1.5 to 2.5 relative activity over Rd2BB (SEQ ID NO: 10)) | + (+ = 0.5 to 1.5 relative activity over Rd2BB (SEQ ID NO: 10))
224 (protein, Synthetic Polypeptide sequence of Variant No. 224 of mature Human GLA) LDNGLARTPTMGWLHWERFMCNLDCQEEPDSCISEKLFMEMAELMVSEGWKDAGYEYLCIDDCWMAPQRDSEGRLQADPQRFPHGIRQLANYVHSKGLKLGIYADVGNKTCAGFPGSFGYYDIDAQTFADWGVDLLKFDGCYCDSLENLADGYKHMSLALNRTGRSIVYSCEWPLYMWPFQKPNYTEIRQYCNHWRNFADIDDSWASIKSILDWTSFNQERIVDVAGPGGWNDPDMLVIGNFGLSWNQQVTQMALWAIMAAPLFMSNDLRHISPQAKALLQDKDVIAINQDPLGKQGYQLRKGDNFEVWERPLSGLAWAVAVINRQEIGGPRSYTIAVASLGKGVACNPACFITQLLPVKRKLGFYNWTSRLRSHINPTGTVLLQLENTMQMSKDLLL | +++ (+++ = >2.5 relative activity over Rd2BB (SEQ ID NO: 10)) | +++ (+++ = >2.5 relative activity over Rd2BB (SEQ ID NO: 10)) | ++ (++ = 1.5 to 2.5 relative activity over Rd2BB (SEQ ID NO: 10))
221 (protein, Synthetic Polypeptide sequence of Variant No. 221 of mature Human GLA) LDNGLARTPTMGWLHWERFMCNLDCQEEPDSCISEKLFMEMAELMVSEGWKDAGYEYLCIDDCWMAPQRDSEGRLQADPQRFPHGIRQLANYVHSKGLKLGIYADVGNKTCAGFPGSFGYYDIDAQTFADWGVDLLKFDGCYCDSLENLADGYKHMSLALNRTGRSIVYSCEWPLYMWPFQKPNYTEIRQYCNHWRNFADIDDSWASIKSILDWTSFNQERIVDVAGPGGWNDPDMLVIGNFGLSWNQQVTQMALWAIMAAPLFMSNDLRHISPQAKALLQDKDVIAINQDPLGKQGYQLRQGDNFEVWERPLSGLAWAVAMINRQEIGGPRSYTIAVASLGKGVACNPACFITQLLPVKRKLGFYEWTSRLRSHINPTGTVLLQLENTIQMSKDLLL | + (+ = 0.5 to 1.5 relative activity over Rd2BB (SEQ ID NO: 10)) | + (+ = 0.5 to 1.5 relative activity over Rd2BB (SEQ ID NO: 10)) | + (+ = 0.5 to 1.5 relative activity over Rd2BB (SEQ ID NO: 10))
